Assay results: IntAct's records for PubMed 39009827

B1: Cell division control protein 45 homolog (Homo sapiens), O75419 (parent)
chain: MFVSDFRKEFYEVVQSQRVLLFVASDVDALCACKILQALFQCDHVQYTLVPVSGWQELETAFLEHKEQFHYFILINCGANVDLLDILQPDEDTIFFVCDTHRPVNVVNVYNDTQIKLLIKQDDDLEVPAYEDIFRDEEEDEEHSGNDSDGSEPSEKRTRLEEEIVEQTMRRRQRREWEARRRDILFDYEQYEYHGTSSAMVMFELAWMLSKDLNDMLWWAIVGLTDQWVQDKITQMKYVTDVGVLQRHVSRHNHRNEDEENTLSVDCTRISFEYDLRLVLYQHWSLHDSLCNTSYTAARFKLWSVHGQKRLQEFLADMGLPLKQVKQKFQAMDISLKENLREMIEESANKFGMKDMRVQTFSIHFGFKHKFLASDVVFATMSLMESPEKDGSGTDHFIQALDSLSRSNLDKLYHGLELAKKQLRATQQTIASCLCTNLVISQGPFLYCSLMEGTPDVMLFSRPASLSLLSKHLLKSFVCSTKNRRCKLLPLVMAAPLSMEHGTVTVVGIPPETDSSDRKNFFGRAFEKAAESTSSRMLHNHFDLSVIELKAEDRSKFLDALISLLS
B2: BRCA1-A complex subunit Abraxas 1 (Homo sapiens), Q6UWZ7 (parent)
chain: MEGESTSAVLSGFVLGALAFQHLNTDSDTEGFLLGEVKGEAKNSITDSQMDDVEVVYTIDIQKYIPCYQLFSFYNSSGEVNEQALKKILSNVKKNVVGWYKFRRHSDQIMTFRERLLHKNLQEHFSNQDLVFLLLTPSIITESCSTHRLEHSLYKPQKGLFHRVPLVVANLGMSEQLGYKTVSGSCMSTGFSRAVQTHSSKFFEEDGSLKEVHKINEMYASLQEELKSICKKVEDSEQAVDKLVKDVNRLKREIEKRRGAQIQAAREKNIQKDPQENIFLCQALRTFFPNSEFLHSCVMSLKNRHVSKSSCNYNHHLDVVDNLTLMVEHTDIPEASPASTPQIIKHKALDLDDRWQFKRSRLLDTQDKRSKADTGSSNQDKASKMSSPETDEEIEKMKGFGEYSRSPTF
B3: Epithelial sodium channel subunit beta (Homo sapiens), P51168 (parent)
chain: MHVKKYLLKGLHRLQKGPGYTYKELLVWYCDNTNTHGPKRIICEGPKKKAMWFLLTLLFAALVCWQWGIFIRTYLSWEVSVSLSVGFKTMDFPAVTICNASPFKYSKIKHLLKDLDELMEAVLERILAPELSHANATRNLNFSIWNHTPLVLIDERNPHHPMVLDLFGDNHNGLTSSSASEKICNAHGCKMAMRLCSLNRTQCTFRNFTSATQALTEWYILQATNIFAQVPQQELVEMSYPGEQMILACLFGAEPCNYRNFTSIFYPHYGNCYIFNWGMTEKALPSANPGTEFGLKLILDIGQEDYVPFLASTAGVRLMLHEQRSYPFIRDEGIYAMSGTETSIGVLVDKLQRMGEPYSPCTVNGSEVPVQNFYSDYNTTYSIQACLRSCFQDHMIRNCNCGHYLYPLPRGEKYCNNRDFPDWAHCYSDLQMSVAQRETCIGMCKESCNDTQYKMTISMADWPSEASEDWIFHVLSQERDQSTNITLSRKGIVKLNIYFQEFNYRTIEESAANNIVWLLSNLGGQFGFWMGGSVLCLIEFGEIIIDFVWITIIKLVALAKSLRQRRAQASYAGPPPTVAELVEAHTNFGFQPDTAPRSPNTGPYPSEQALPIPGTPPPNYDSLRLQPLDVIESDSEGDAI

Variants of: B1
Details: with ima3_human KPNA4, O00629
Target sequence in this assay (O00629 whole entry): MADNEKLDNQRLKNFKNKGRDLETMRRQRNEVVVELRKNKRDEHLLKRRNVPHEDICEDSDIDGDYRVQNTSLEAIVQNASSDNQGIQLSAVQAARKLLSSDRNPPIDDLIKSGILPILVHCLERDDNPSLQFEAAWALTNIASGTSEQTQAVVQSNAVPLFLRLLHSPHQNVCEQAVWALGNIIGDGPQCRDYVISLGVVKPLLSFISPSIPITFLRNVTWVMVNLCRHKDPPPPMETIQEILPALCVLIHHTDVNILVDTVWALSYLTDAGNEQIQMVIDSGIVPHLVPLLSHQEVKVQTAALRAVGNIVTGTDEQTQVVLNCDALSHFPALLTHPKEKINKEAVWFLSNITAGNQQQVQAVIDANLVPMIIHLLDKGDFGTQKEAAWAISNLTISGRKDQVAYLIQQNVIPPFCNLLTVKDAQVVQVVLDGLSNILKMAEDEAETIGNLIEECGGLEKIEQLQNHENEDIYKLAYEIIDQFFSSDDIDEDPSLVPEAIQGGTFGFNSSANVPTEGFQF

Row | Variant | effect of a mutation on the interaction
1 | R157C | disrupting interaction strength

Variants of: B1
Details: with ima8_human KPNA7, A9QM74
Sequence of ima8_human KPNA7, A9QM74 (A9QM74 whole entry): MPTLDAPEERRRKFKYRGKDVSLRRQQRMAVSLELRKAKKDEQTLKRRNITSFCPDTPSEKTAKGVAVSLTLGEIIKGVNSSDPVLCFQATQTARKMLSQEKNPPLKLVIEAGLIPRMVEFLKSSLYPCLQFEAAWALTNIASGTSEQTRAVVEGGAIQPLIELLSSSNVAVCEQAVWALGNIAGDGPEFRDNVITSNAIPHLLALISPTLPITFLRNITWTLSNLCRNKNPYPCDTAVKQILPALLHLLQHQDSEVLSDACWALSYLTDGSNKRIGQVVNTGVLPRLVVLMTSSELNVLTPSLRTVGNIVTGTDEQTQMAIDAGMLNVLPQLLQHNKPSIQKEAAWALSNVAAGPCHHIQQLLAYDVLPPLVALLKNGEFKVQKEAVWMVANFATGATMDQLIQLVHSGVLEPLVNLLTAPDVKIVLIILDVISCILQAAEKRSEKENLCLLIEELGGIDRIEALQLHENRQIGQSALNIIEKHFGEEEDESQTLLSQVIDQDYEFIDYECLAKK

Row | Variant | effect of a mutation on the interaction
2 | R157C | disrupting interaction strength

Variants of: B1
Details: with ima3_human KPNA4, O00629
Remark: another data set of the same source
Target sequence in this assay (O00629 whole entry): as the sequence (O00629 whole entry) above

Row | Variant | effect of a mutation on the interaction
3 | R157C | decreasing interaction strength

Variants of: B2
Details: with ima3_human KPNA4, O00629
Target sequence in this assay (O00629 whole entry): as above

Row | Variant | effect of a mutation on the interaction
4 | R361Q | decreasing interaction strength

Variants of: B3
Details: with nedd4_human NEDD4, P46934
Sequence of nedd4_human NEDD4, P46934 (P46934 whole entry): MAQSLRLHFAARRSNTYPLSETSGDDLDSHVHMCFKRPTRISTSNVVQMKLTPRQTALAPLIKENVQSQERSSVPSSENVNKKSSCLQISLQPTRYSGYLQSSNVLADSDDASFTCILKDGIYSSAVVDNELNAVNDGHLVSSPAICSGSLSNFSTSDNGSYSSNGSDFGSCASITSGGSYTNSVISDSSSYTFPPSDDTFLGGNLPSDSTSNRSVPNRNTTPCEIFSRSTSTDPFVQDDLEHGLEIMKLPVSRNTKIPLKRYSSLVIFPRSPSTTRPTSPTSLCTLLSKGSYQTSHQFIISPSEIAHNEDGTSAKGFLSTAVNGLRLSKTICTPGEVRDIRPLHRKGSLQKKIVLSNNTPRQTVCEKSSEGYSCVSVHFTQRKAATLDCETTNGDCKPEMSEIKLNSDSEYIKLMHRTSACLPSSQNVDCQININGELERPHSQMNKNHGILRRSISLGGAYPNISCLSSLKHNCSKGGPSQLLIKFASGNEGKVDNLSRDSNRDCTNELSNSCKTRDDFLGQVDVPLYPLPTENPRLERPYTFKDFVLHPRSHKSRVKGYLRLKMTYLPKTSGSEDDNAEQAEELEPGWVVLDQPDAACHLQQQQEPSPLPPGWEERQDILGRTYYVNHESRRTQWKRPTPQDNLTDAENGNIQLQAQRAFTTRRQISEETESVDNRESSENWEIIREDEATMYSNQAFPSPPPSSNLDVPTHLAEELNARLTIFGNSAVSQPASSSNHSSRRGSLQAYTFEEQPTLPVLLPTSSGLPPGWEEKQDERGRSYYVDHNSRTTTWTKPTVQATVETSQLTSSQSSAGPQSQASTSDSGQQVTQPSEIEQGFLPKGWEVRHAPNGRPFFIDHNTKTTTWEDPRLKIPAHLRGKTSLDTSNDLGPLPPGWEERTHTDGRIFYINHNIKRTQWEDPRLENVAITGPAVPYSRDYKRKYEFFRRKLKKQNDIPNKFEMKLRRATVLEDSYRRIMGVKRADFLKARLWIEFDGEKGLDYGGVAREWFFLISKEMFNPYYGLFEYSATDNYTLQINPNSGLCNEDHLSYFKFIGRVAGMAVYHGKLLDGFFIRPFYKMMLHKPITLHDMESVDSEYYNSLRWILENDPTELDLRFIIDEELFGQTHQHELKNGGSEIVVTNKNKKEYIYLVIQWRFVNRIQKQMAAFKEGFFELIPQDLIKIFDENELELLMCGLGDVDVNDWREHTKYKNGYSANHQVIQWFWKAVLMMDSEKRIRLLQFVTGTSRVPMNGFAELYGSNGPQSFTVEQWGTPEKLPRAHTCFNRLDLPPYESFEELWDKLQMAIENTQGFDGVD

Row | Variant | effect of a mutation on the interaction
5 | P617S | decreasing interaction strength
6 | Y620H | decreasing interaction strength

Variants of: B3
Details: with wwtr1_human WWTR1, Q9GZV5
Sequence of wwtr1_human WWTR1, Q9GZV5 (Q9GZV5 whole entry): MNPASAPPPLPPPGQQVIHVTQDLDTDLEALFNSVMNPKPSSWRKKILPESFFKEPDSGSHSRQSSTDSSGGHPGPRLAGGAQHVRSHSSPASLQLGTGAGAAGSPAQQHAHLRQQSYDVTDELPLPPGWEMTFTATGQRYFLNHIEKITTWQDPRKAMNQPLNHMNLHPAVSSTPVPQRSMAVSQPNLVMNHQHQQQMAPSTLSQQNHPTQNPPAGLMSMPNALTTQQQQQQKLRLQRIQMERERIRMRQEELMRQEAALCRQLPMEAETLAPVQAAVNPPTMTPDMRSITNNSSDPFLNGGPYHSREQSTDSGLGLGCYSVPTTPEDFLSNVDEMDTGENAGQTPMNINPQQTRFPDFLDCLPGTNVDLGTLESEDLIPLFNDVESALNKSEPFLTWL

Row | Variant | effect of a mutation on the interaction
7 | P617S | decreasing interaction strength
8 | Y620H | decreasing interaction strength

Variants of: B3
Details: with nedd4_human NEDD4, P46934
Remark: another data set of the same source

Row | Variant | effect of a mutation on the interaction
9 | P616R | decreasing interaction strength
